Test results published in ChEMBL document CHEMBL1127724, “Design and synthesis of 6-fluoropurine acyclonucleosides : potential prodrugs of acyclovir and ganciclovir” (Bioorg Med Chem Lett, 1994).

Columns and labels:
[1] = substrate: Nc1ncnc2c1ncn2[C@@H]1O[C@H](CO)[C@@H](O)[C@H]1O; test: Vmax for Calf intestinal mucosa adenosine deaminase was determined
[2] = substrate: Nc1ncnc2c1ncn2[C@@H]1O[C@H](CO)[C@@H](O)[C@H]1O; test: Michaelis-Menten constant for Calf intestinal mucosa adenosine deaminase was determined

B1: Adenosine deaminase (Bos taurus), P56658 (protein)
chain: MAQTPAFNKPKVELHVHLDGAIKPETILYYGRKRGIALPADTPEELQNIIGMDKPLSLPEFLAKFDYYMPAIAGCREAVKRIAYEFVEMKAKDGVVYVEVRYSPHLLANSKVEPIPWNQAEGDLTPDEVVSLVNQGLQEGERDFGVKVRSILCCMRHQPSWSSEVVELCKKYREQTVVAIDLAGDETIEGSSLFPGHVKAYAEAVKSGVHRTVHAGEVGSANVVKEAVDTLKTERLGHGYHTLEDATLYNRLRQENMHFEVCPWSSYLTGAWKPDTEHPVVRFKNDQVNYSLNTDDPLIFKSTLDTDYQMTKNEMGFTEEEFKRLNINAAKSSFLPEDEKKELLDLLYKAYGMPSPASAEQCL
Vmax (uM min-1 unit-1) [1]: 0.76 | Km [2]: 50.5 µM
